{
  "source": "patent US20250269018A1",
  "about": "“COMBINED CANCER THERAPY WITH AN EPITHELIAL CELL ADHESION MOLECULE (EPCAM) INHIBITOR AND A HEPATOCYTE GROWTH FACTOR RECEPTOR (HGFR) INHIBITOR” (ACADEMIA SINICA, priority 2021, published 2025)",
  "molecules": {"B1": {"name": "EpEX-Fc (Fc fusion)", "chain": "QEECVCENYKLAVNCFVNNNRQCQCTSVGAQNTVICSKLAAKCLVMKAEMNGSKLGRRAKPEGALQNNDGLYDPDCDESGLFKAKQCNGTSMCWCVNTAGVRRTDKDTEITCSERVRTYWIIIELKHKAREKPYDSKSLRTALQKEITTRYQLDPKFITSILYENNVITIDLVQNSSQKTQNDVDIADVAYYFEKDVKGESLFHSKKMDLTVNGEQLDLDPGQTLIYYVDEKAPEFSMQGLK", "notes": "also called recombinant EpEX-Fc; not shown: Fc"}, "B2": {"name": "EpEX-His (extracellular domain of EpCAM, His-tagged) (ligand)", "chain": "B1 chain", "notes": "It was made in Expi293 cells and purified on Ni-NTA; also called soluble EpEX; secreted EpEX; not shown: His tag"}, "B3": {"name": "EpCAMΔEGFI+II-V5 (other)", "chain": "QEESKLAAKSERVRTYWIIIELKHKAREKPYDSKSLRTALQKEITTRYQLDPKFITSILYENNVITIDLVQNSSQKTQNDVDIADVAYYFEKDVKGESLFHSKKMDLTVNGEQLDLDPGQTLIYYVDEKAPEFSMQGLKAGVIAVIVVVVIAVVAGIVVLVISRKKRMAKYEKAEIKEMGEMHRELNA", "notes": "also called both domain-deleted mutants; not shown: V5 tag"}, "B4": {"name": "F(ab′)2 of EpAb2-6 (antibody, V domains shown)", "VH": "VKLQESGPELKKPGETVKISCKASGYTFTDYSMHWVKQAPGKGLKWMGWINTETGEPTYADDFKGRFAFSLETSASTAYLQINNLKNEDTATYFCARTAVYWGQGTTVTVSS", "VL": "DIQMTQSPSSLSASLGERVSLTCRASQEISVSLSWLQQEPDGTIKRLIYATSTLDSGVPKRFSGSRSGSDYSLTISSLESEDFVDYYCLQYASYPWTFGGGTKLEIKR", "notes": "F(ab′)2 fragment of mouse EpAb2-6; also called divalent antibody fragments F(ab′)2 of EpAb2-6"}, "B5": {"name": "F(ab′)2 of EpAb2-6: divalent antibody fragments F(ab′)2 of EpAb2-6 (antibody, V domains shown)", "VH": "B4 VH", "VL": "DIQMTQSPSSLSASLGERVSLTCRASQEISVSLSWLQQEPDGTIKRLIYATSTLDSGVPKRFSGSRSGSDYSLTISSLESEDFVDYYCLQYASYPWTFGGGTKLEIKRADAAPTVS"}, "B6": {"name": "EpAb2-6 (mouse monoclonal IgG) (antibody, V domains shown)", "VH": "B4 VH", "VL": "B4 VL", "notes": "Mouse hybridoma IgG; also called mouse EpAb2-6; mEpAb2-6"}, "B7": {"name": "endogenous EpCAM (HCT116 and HT29 cells) (other)", "chain": "QEECVCENYKLAVNCFVNNNRQCQCTSVGAQNTVICSKLAAKCLVMKAEMNGSKLGRRAKPEGALQNNDGLYDPDCDESGLFKAKQCNGTSMCWCVNTAGVRRTDKDTEITCSERVRTYWIIIELKHKAREKPYDSKSLRTALQKEITTRYQLDPKFITSILYENNVITIDLVQNSSQKTQNDVDIADVAYYFEKDVKGESLFHSKKMDLTVNGEQLDLDPGQTLIYYVDEKAPEFSMQGLKAGVIAVIVVVVIAVVAGIVVLVISRKKRMAKYEKAEIKEMGEMHRELNA", "notes": "Endogenous protein of human colon cancer cell lines, immunoprecipitated from lysates; also called epithelial cell adhesion molecule"}, "B8": {"name": "EpCAM-V5 (full length, expressed in HEK293T cells) (other)", "chain": "B7 chain", "notes": "also called exogenous EpCAM; not shown: V5 tag"}, "B9": {"name": "EpEXΔEGFI+II-His (ligand)", "chain": "QEESKLAAKSERVRTYWIIIELKHKAREKPYDSKSLRTALQKEITTRYQLDPKFITSILYENNVITIDLVQNSSQKTQNDVDIADVAYYFEKDVKGESLFHSKKMDLTVNGEQLDLDPGQTLIYYVDEKAPEFSMQGLK", "notes": "EpEX lacking aa 27-59 and 66-135; also called EGF like-domain deletion mutant EpEX-His; soluble EpEX mutant protein; not shown: His tag"}, "B10": {"name": "EpEXΔEGFI+II-Fc (Fc fusion)", "chain": "B9 chain", "notes": "EpEX lacking aa 27-59 and 66-135, coated on ELISA plates at 1 µg/ml; also called EpEXΔEGFI+II mutant protein; EGF like-domain deletion mutant-Fc; not shown: Fc"}},
  "key": {"[1]": {"target": "T1, HGFR-His recombinant protein (human, UniProt P08581 25-932)", "T1 construct": "extracellular domain; also called HGFRECD-His recombinant protein; not shown: His tag", "T1 sequence (P08581 25-932)": "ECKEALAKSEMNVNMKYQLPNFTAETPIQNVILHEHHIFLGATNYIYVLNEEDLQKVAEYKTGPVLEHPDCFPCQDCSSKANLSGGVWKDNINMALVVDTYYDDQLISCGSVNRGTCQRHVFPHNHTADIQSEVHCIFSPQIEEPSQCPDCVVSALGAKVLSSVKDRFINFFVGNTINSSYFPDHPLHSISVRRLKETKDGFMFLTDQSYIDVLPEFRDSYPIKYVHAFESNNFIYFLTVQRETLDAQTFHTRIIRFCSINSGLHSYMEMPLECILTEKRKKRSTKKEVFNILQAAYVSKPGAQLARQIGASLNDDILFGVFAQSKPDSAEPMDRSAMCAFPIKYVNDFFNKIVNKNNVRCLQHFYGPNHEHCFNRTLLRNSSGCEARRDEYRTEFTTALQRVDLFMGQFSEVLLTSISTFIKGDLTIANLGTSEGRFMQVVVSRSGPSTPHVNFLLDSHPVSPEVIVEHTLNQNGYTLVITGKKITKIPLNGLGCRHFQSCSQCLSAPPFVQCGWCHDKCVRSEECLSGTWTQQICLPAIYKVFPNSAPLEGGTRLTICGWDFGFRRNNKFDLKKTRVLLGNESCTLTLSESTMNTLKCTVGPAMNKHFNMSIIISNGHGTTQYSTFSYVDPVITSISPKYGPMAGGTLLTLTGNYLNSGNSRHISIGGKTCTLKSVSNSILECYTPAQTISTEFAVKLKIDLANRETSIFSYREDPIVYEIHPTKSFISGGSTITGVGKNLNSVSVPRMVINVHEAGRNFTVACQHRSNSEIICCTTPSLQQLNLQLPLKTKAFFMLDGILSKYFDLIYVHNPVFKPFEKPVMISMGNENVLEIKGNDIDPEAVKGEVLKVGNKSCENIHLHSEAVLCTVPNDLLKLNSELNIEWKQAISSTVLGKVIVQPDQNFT", "assay": "ELISA, HGFR-His (2 µg/ml) on coated EpEX-Fc proteins (1 µg/ml) (FIG. 1H)"}, "[2]": {"target": "T2, HGFRECD-c-Myc (extracellular domain of HGFR with c-Myc tag, expressed in HEK293T cells) (UniProt P08581 25-932)", "T2 construct": "extracellular domain; also called HGFRECD-c-Myc-tag; not shown: c-Myc tag", "T2 sequence (P08581 25-932)": "as above", "assay": "co-IP from transfected HEK293T cells (restated)"}, "HGFR-Fc protein": {"target": "T3, HGFR-Fc protein (human, UniProt P08581 25-932)", "T3 construct": "not shown: Fc", "T3 sequence (P08581 25-932)": "as above", "assay": "ELISA, EpEX-His (2 µg/ml) on coated HGFR-Fc (1 µg/ml) (FIG. 6F)"}, "[3]": {"target": "T2, HGFRECD-c-Myc (extracellular domain of …)", "assay": "co-IP from transfected HEK293T cells, Western blotting (FIG. 1F)"}, "[4]": {"target": "B2", "assay": "ELISA on coated EpEX-His (1 µg/ml) (FIG. 7A)"}, "EpEX-His": {"target": "T4, EpEX-His (Homo sapiens, UniProt P16422)", "T4 construct": "the soluble extracellular domain of EpCAM (EpEX); His; made in house; host or cells: Expi293", "T4 sequence (P16422 24-265 limits assumed)": "B1 chain", "assay": "ELISA binding to coated EpEX-His", "settings": "EpEX-His 1 μg/ml coated; ELISA OD450; FIG. 7A", "description": "FIGS. 7A to 7G. EpAb2-6 binds EpEX and induces apoptosis by F(ab′)2 and inhibits regulated intramembrane proteolysis (RIP) activation and HGFR signaling. (FIG. 7A) Binding affinity of IgG EpAb2-6 (mouse) and F(ab′)2 to EpEX-His (1 μg/ml) coated overnight was checked using ELISA (OD450). (FIG. 7B) HCT116 cells were treated with 100 μg/ml control IgG, Fc, or F(ab′)2 of EpAb2-6 for 24 h. The apoptotic and necrotic cells were quantified by fluorescein annexin V-FITC/PI double labeling. (FIG. 7C) HCT116 and HT29 cells were treated with 10 μg/ml control IgG, MT201, humanized EpAb2-6 (hEpAb2-6) or mouse hybridoma EbAb2-6 (mEpAb2-6) for 24 h. The apoptotic and necrotic cells were quantified by fluorescein annexin V-FITC/PI double labeling. (FIG. 7D) HCT116 cells were treated with 10 μg/ml control IgG, MT201, hEpAb2-6 or mEpAb2-6 for 16 h, followed by treatment with EpEX-His (50 nM) for 15 min. Levels of phosphorylated HGFR, AKT, and ERK, and (FIG. 7E) RIP proteins ADAM17 and presenilin 2 were examined by Western blotting. Anti-EpCAM antibody and crizotinib coordinately induces apoptosis in colon cancer cells. (FIG. 7F) HCT116 and HT29 cells were treated with 10 μg/ml NMIgG or EpAb2-6 and 4 μM HGFR inhibitor crizotinib for 24 h. The apoptotic and necrotic cells were quantified by fluorescein annexin V-FITC/PI double labeling. […] Cell invasion was assessed by a Transwell assay with matrigel after 24 h."}, "HCT116 cells": {"system": "HCT116 cells", "assay": "Apoptosis assay, annexin V-FITC/PI double labeling, HCT116", "format": "cell-based, human", "settings": "100 μg/ml 24 h, FIG. 7B", "description": "FIGS. 7A to 7G. EpAb2-6 binds EpEX and induces apoptosis by F(ab′)2 and inhibits regulated intramembrane proteolysis (RIP) activation and HGFR signaling. (FIG. 7A) Binding affinity of IgG EpAb2-6 (mouse) and F(ab′)2 to EpEX-His (1 μg/ml) coated overnight was checked using ELISA (OD450). (FIG. 7B) HCT116 cells were treated with 100 μg/ml control IgG, Fc, or F(ab′)2 of EpAb2-6 for 24 h. The apoptotic and necrotic cells were quantified by fluorescein annexin V-FITC/PI double labeling. (FIG. 7C) HCT116 and HT29 cells were treated with 10 μg/ml control IgG, MT201, humanized EpAb2-6 (hEpAb2-6) or mouse hybridoma EbAb2-6 (mEpAb2-6) for 24 h. The apoptotic and necrotic cells were quantified by fluorescein annexin V-FITC/PI double labeling. (FIG. 7D) HCT116 cells were treated with 10 μg/ml control IgG, MT201, hEpAb2-6 or mEpAb2-6 for 16 h, followed by treatment with EpEX-His (50 nM) for 15 min. Levels of phosphorylated HGFR, AKT, and ERK, and (FIG. 7E) RIP proteins ADAM17 and presenilin 2 were examined by Western blotting. Anti-EpCAM antibody and crizotinib coordinately induces apoptosis in colon cancer cells. (FIG. 7F) HCT116 and HT29 cells were treated with 10 μg/ml NMIgG or EpAb2-6 and 4 μM HGFR inhibitor crizotinib for 24 h. The apoptotic and necrotic cells were quantified by fluorescein annexin V-FITC/PI double labeling. (FIG. 7G) HCT116 and HT29 cells were treated with 10 μg/ml NMIgG or EpAb2-6 and 10 μM HGFR inhibitor crizotinib. Cell invasion was assessed by a Transwell assay with matrigel after 24 h.\nCells were seeded and treated with 10 μg/ml mAb or inhibitor for 6 h; an unrelated mouse myeloma immunoglobulin used at appropriate dilution served as the IgG2a (Invitrogen #02-6200) isotype control. Apoptotic cells were detected using Annexin V-FITC and PI, and were analyzed using a flow cytometer (BD Immmunocytometry Systems). Early apoptosis was measured with the Annexin V-FITC Apoptosis Detection kit II (BD Pharmingen). Late apoptotic nuclei were detected with propidium iodide (PI) staining."}, "[5]": {"target": "B2", "assay": "ELISA on coated EpEX-His (1 µg/ml) (title of the legend, FIG. 7A)"}, "[6]": {"target": "T5, EpCAM wild-type (expressed in HEK293T cells, FIG. 8D-8G) (human, UniProt P16422 24-314)", "T5 sequence": "B7 chain", "assay": "immunofluorescence, flow cytometry and cellular ELISA on transfected HEK293T cells (FIG. 8E-8G)"}, "[7]": {"target": "B8", "assay": "Western blotting, flow cytometry and immunofluorescence on transfected HEK293T cells (title of the legend, FIG. 8A-8C)"}, "[8]": {"target": "T6, endogenous HGFR (HCT116 and HT29 cells) (human, UniProt P08581 25-1390)", "T6 construct": "whole, on cells; also called c-MET; hepatocyte growth factor receptor", "T6 sequence (P08581 25-1390)": "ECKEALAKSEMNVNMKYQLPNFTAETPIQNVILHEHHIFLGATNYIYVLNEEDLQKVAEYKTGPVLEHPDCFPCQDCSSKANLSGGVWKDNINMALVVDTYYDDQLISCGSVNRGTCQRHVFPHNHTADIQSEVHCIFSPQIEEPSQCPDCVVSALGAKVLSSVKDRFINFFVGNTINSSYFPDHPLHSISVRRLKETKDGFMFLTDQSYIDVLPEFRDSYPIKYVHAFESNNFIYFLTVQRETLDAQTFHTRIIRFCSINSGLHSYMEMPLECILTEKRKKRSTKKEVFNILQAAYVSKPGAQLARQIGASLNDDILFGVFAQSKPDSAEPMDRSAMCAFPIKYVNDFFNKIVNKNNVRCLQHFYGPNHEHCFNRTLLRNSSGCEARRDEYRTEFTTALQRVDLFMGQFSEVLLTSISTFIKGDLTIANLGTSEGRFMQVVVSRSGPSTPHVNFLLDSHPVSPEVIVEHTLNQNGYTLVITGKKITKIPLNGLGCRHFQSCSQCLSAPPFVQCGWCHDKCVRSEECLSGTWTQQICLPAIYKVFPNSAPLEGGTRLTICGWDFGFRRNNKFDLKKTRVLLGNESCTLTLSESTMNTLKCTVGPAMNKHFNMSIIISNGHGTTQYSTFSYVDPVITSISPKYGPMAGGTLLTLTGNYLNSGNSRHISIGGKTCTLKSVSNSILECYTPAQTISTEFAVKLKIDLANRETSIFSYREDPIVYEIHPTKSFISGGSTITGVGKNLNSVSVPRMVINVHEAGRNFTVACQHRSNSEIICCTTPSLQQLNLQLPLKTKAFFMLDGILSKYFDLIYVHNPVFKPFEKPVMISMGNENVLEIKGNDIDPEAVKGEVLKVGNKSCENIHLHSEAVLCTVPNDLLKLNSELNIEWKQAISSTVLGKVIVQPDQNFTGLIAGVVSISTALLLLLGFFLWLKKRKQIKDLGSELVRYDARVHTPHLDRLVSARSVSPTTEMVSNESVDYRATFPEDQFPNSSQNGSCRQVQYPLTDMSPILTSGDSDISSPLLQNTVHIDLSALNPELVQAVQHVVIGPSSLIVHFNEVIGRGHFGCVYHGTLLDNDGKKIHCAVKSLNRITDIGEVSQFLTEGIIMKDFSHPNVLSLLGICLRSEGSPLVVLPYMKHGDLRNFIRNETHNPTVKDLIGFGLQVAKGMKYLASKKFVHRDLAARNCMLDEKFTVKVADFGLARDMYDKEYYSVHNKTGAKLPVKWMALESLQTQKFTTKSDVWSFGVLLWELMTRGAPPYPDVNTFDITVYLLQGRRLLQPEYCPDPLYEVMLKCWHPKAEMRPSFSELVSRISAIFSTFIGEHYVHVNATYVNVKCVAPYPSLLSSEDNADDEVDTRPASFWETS", "assay": "co-IP of endogenous proteins after DTSSP cross-linking, HCT116 and HT29 cells (FIG. 1A)"}, "[9]": {"target": "T2, HGFRECD-c-Myc (extracellular domain of …)", "assay": "co-IP from HEK293T cells overexpressing EpCAM-V5 and HGFRECD-c-Myc (FIG. 1B)"}, "[10]": {"target": "T2, HGFRECD-c-Myc (extracellular domain of …)", "assay": "co-IP with anti-c-Myc from transfected HEK293T cells, Western blotting (FIG. 1G)"}, "[11]": {"target": "T1, HGFR-His recombinant protein", "assay": "ELISA, HGFR-His added to plates coated with mutant-Fc (1 µg/ml) (FIG. 1H)"}},
  "data": [
    {"molecule": "B1", "values": [
      {"measurement": "binding result", "setting": "[1]", "value": "binds"}
    ]},
    {"molecule": "B2", "values": [
      {"measurement": "binding result", "setting": "[2]", "value": "binds"},
      {"measurement": "binding result", "setting": "HGFR-Fc protein", "value": "binds"}
    ]},
    {"molecule": "B3", "values": [
      {"measurement": "binding result", "setting": "[3]", "value": "no binding"}
    ]},
    {"molecule": "B4", "values": [
      {"measurement": "binding result", "setting": "[4]", "value": "binds"}
    ]},
    {"molecule": "B5", "values": [
      {"measurement": "binding to EpEX", "setting": "EpEX-His", "value": "bind to EpEX"},
      {"measurement": "apoptosis", "setting": "HCT116 cells", "value": "induce apoptosis in colon cancer cells"}
    ]},
    {"molecule": "B6", "values": [
      {"measurement": "binding result", "setting": "[5]", "value": "binds"},
      {"measurement": "binding result", "setting": "[6]", "value": "binds"},
      {"measurement": "binding result", "setting": "[7]", "value": "binds"}
    ]},
    {"molecule": "B7", "values": [
      {"measurement": "binding result", "setting": "[8]", "value": "binds"}
    ]},
    {"molecule": "B8", "values": [
      {"measurement": "binding result", "setting": "[9]", "value": "binds"}
    ]},
    {"molecule": "B9", "values": [
      {"measurement": "binding result", "setting": "[10]", "value": "no binding"}
    ]},
    {"molecule": "B10", "values": [
      {"measurement": "binding result", "setting": "[11]", "value": "no binding (tested: 2 µg/ml)"}
    ]}
  ]
}
